Two molecules from patent US20230137139A1, “BIOSYNTHESIS OF CANNABINOIDS AND C[…]” (priority 2020, published 2023) can be followed below.

For experiment [1], the system named is CBCVA, THCVA, and CBDVA production. Nature of the experiment: In vivo TS activity assay, Example 2 protein engineering of A. niger CBCAS, cultures fed divaric acid. The format is cell-based, S. cerevisiae. The conditions noted are these: for Mean CBCVA / Mean CBDVA / Mean THCVA: S. cerevisiae strains expressing A. niger CBCAS mutants; for Mean CBCVA / Mean CBDVA / Mean THCVA / average CBCVA titer compared with the A. niger positive control: secondary screen; for Mean CBCVA / Mean CBDVA / Mean THCVA / % CBCVA / % CBDVA / % THCVA: fed divaric acid; for % CBCVA / % CBDVA / % THCVA: share of terminal cannabinoid product profile. Here is the method: (§1) An assay to detect TS activity was conducted as follows: each thawed glycerol stock of candidate CBCAS transformants was stamped into a well of YEP+4% dextrose media. Samples were incubated at 30° C. in a shaking incubator for 2 days. A portion of each of the resulting cultures was stamped into a well of YEP+4% galactose+1 mM olivetolic acid (FIG. 1 Structure 6a). Samples were incubated at 20° C. and shaken in a shaking incubator for 4 days. Every 24 hours during those 4 days, 2% galactose and 1 mM olivetolic acid were spiked into the cultures. Sodium citrate buffer adjusted to pH 5.5 was added to each well at a final concentration of 100 mM. Samples were incubated at 20° C. and shaken in a shaking incubator for 2 days. A portion of each of the resulting production cultures was stamped into a well of phosphate buffered saline (PBS). Optical measurements were taken on a plate reader, with absorbance measured at 600 nm and fluorescence at 528 nm with 485 nm excitation. Samples were incubated at 30° C. in a shaking incubator for 2 days. 100% methanol was stamped into the production cultures in half-height deepwell plates. Plates were heat sealed and frozen. Samples were then thawed for 30 min and spun down at 4° C. A portion of the supernatant was stamped into half-area 96 well plates. CBCA, THCA, and CBDA production in the samples was quantified via liquid chromatography-mass spectrometry (LC-MS).
(§2) To determine whether engineering of the A. niger CBCAS identified in Example 1 (corresponding to SEQ ID NO: 29 (with signal peptides); SEQ ID NO: 27 (without signal peptides and including an N-terminal methionine (UniProt accession No. A0A254UC34)); or SEQ ID NO: 25 (without signal peptides and without the N-terminal methionine)), could alter CBCAS substrate specificity, product specificity and/or amounts of products produced, point mutations were generated in A. niger CBCAS and the mutant versions of the protein were expressed in S. cerevisiae. A library containing 1047 A. niger CBCAS mutants was generated and screened. As in Example 1, each CBCAS mutant in the library, as well as the enzymes expressed by positive control strains, included an N-terminal MFalpha2 signal peptide (SEQ ID NO: 16) (with a methionine residue added at the N-terminus of the MFalpha2 signal peptide) and a C-terminal HDEL signal peptide (SEQ ID NO: 17).
(§3) Of the original 1047 library members, 55 strains were elevated to a secondary screen to verify CBCA production. The experimental protocol for the secondary screen was identical to the primary screen, except that additional biological replicates were included per strain, and replicate production cultures for each strain were separately fed 1 mM boluses of olivetolic acid or 1 mM boluses of divaric acid. All strains were screened in quadruplicate.

Experiment [2] has as its system CBCA, THCA, and CBDA production. As to the kind of experiment: In vivo TS activity assay, Example 2 protein engineering of A. niger CBCAS, cultures fed olivetolic acid. The following applies: for average CBCA titer compared with the A. niger positive control / Mean CBCA / Mean CBDA / Mean THCA: secondary screen; for Mean CBCA / Mean CBDA / Mean THCA: olivetolic acid (Table 8); for % CBCA / % CBDA / % THCA: share of terminal cannabinoid product profile. It is filed as cell-based, S. cerevisiae. The protocol: as §1, §2
Production of compounds of Formulae (9), (10), and/or (11), including compounds of Formulae (9a), (10a), and/or (11a) by strains expressing the mutated versions of A. niger CBCAS was quantified and compared to the production of the same compounds by a strain expressing wild-type A. niger CBCAS, a strain expressing a C. sativa THCAS, and a strain expressing a C. sativa CBDAS. The strains were screened using the same assay described in Example 1. Production of CBCA, THCA, and/or CBDA in the samples was quantified via LC-MS.
as §3

B1: t865743 (protein)
chain: MGNTTSIAGRDCLISALGGNSALAVFPNELLWTADVHEYNLNLPVTPAAITYPETAAQIAGVVKCASDYDYKVQARSGGHSFGNYGLGGADGAVVVDMKHFTQFSMDDETYEAVIGPGTTLNDVDIELYNNGKRAMAHGVCPTIKTGGHFTIGGLGPTARQWGLALDHVEEVEVVLANSSIVRASNTQNQDVFFAVKGAAANFGIVTEFKVRTEPAPGLAVQYSYTFNLGSTAEKAQFVKDWQSFISAKNLTRQFYNNMMIFDGDIILEGLFFGSKEQYDALGLEDHFAPKNPGNILVLTDWLGMVGHALEDTILKLVGNTPTWFYAKSLGFRQDTLIPSAGIDEFFEYIANHTAGTPAWFVTLSLEGGAINDVAEDATAYAHRDVLFWVQLFMVNPVGPISDTTYEFTDGLYDVLARAVPESVGHAYLGCPDPRMEDAQQKYWRTNLPRLQELKEELDPKNTFHHPQGVMPA
As to B1, in experiment [1], the “Mean CBCVA” value worked out at 4972.60 µg/L, the “Mean CBDVA” value was found to be 0.00 µg/L, the “Mean THCVA” value worked out at 2989.22 µg/L and the “average CBCVA titer compared with the A. niger positive control” value is “higher”. In addition, in experiment [1], the “% CBCVA” value is recorded as 62.46%, the “% CBDVA” value is on record as 0.00% and the “% THCVA” value is 37.54%. Besides, in experiment [2], the “average CBCA titer compared with the A. niger positive control” value is recorded as “higher”, the “Mean CBCA” value came to 58061.40 µg/L, the “Mean CBDA” value is 11245.27 µg/L and the “Mean THCA” value was 3389.10 µg/L. In experiment [2], the “% CBCA” value is listed as 79.87%, the “% CBDA” value is 15.47% and the “% THCA” value was found to be 4.66%.

B2: t865737 (protein)
chain: MGNTTSIAGRDCLISALGGNSALAVFPNELLWTADVHEYNLNLPVTPAAITYPETAAQIAGIVKCASDYDYKVQARSGGHSFGNYGLGGADGAVVVDMKHFTQFSMDDETYEAVIGPGTTLNDVDIELYNNGKRAMAHGVCPTIKTGGHFTIGGLGPTARQWGLALDHVEEVEVVLANSSIVRASNTQNQDVFFAVKGAAANFGIVTEFKVRTEPAPGLAVQYSYTFNLGSTAEKAQFVKDWQSFISAKNLTRQFYNNMVIFDGDIILEGLFFGSKEQYDALGLEDHFAPKNPGNILVLTDWLGMVGHALEDTILKLVGNTPTWFYAKSLGFRQDTLIPSAGIDEFFEYIANHTAGTPAWFVTLSLEGGAINDVAEDATAYAHRDVLFWVQLFMVNPVGPISDTTYEFTDGLYDVLARAVPESVGHAYLGCPDPRMEDAQQKYWRTNLPRLQELKEELDPKNTFHHPQGVMPA
As for B2, in experiment [1], the “Mean CBCVA” value is 4271.01 µg/L, the “Mean CBDVA” value is 0.00 µg/L, the “Mean THCVA” value was 2136.23 µg/L and the “average CBCVA titer compared with the A. niger positive control” value was “higher”. Further, in experiment [1], the “% CBCVA” value was 66.66%, the “% CBDVA” value turned out to be 0.00% and the “% THCVA” value was determined as 33.34%. In addition, in experiment [2], the “average CBCA titer compared with the A. niger positive control” value is given as “higher”, the “Mean CBCA” value worked out at 53771.53 µg/L, the “Mean CBDA” value was determined as 10699.35 µg/L and the “Mean THCA” value turned out to be 2873.74 µg/L. Moreover, in experiment [2], the “% CBCA” value was 79.85%, the “% CBDA” value worked out at 15.89% and the “% THCA” value was found to be 4.27%.
